According to patent US20120196307:

Key:
[1] = target: T1, synaptotagmin-1, intact 65 kDa protein (rat), P21707
T1 chain: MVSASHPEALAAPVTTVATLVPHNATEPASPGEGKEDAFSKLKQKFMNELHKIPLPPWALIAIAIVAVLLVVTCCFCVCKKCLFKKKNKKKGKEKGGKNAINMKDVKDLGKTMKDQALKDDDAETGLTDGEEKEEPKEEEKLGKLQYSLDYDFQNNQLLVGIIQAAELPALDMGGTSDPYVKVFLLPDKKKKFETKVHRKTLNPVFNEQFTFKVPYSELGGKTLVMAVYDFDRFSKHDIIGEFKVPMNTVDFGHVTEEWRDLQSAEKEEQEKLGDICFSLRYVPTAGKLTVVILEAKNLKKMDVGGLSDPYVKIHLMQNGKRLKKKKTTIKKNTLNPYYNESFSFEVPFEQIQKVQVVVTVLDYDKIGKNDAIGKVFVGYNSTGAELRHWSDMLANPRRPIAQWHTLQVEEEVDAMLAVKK

[2] = target: collapsin response mediator protein-2, intact (rat), P47942
[3] = target: CRMP-2 C-terminal 53-mer (500-552) synthetic peptide, Q16555

B1: human calpain-2 (Calbiochem, Cat#208715) (protein)
chain: AGIAAKLAKDREAAEGLGSHDRAIKYLNQDYEALRNECLEAGTLFQDPSFPAIPSALGFKELGPYSSKTRGIEWKRPTEICADPQFIIGGATRTDICQGALGDCWLLAAIASLTLNEEILARVVPLNQSFQENYAGIFHFQFWQYGEWVEVVVDDRLPTKDGELLFVHSAEGSEFWSALLEKAYAKINGCYEALSGGATTEGFEDFTGGIAEWYELKKPPPNLFKIIQKALQKGSLLGCSIDITSAADSEAITFQKLVKGHAYSVTGAEEVESNGSLQKLIRIRNPWGEVEWTGRWNDNCPSWNTIDPEERERLTRRHEDGEFWMSFSDFLRHYSRLEICNLTPDTLTSDTYKKWKLTKMDGNWRRGSTAGGCRNYPNTFWMNPQYLIKLEEEDEDEEDGESGCTFLVGLIQKHRRRQRKMGEDMHTIGFGIYEVPEELSGQTNIHLSKNFFLTNRARERSDTFINLREVLNRFKLPPGEYILVPSTFEPNKDGDFCIRVFSEKKADYQAVDDEIEANLEEFDISEDDIDDGFRRLFAQLAGEDAEISAFELQTILRRVLAKRQDIKSDGFSIETCKIMVDMLDSDGSGKLGLKEFYILWTKIQKYQKIYREIDVDRSGTMNSYEMRKALEEAGFKMPCQLHQVIVARFADDQLIIDFDNFVRCLVRLETLFKIFKQLDPENTGTIELDLISWLCFSVL
[1]
  in vitro protease digestion of lysate, Western blot: Syt1-blot also showed a calpain-concentration-dependent reduction of intact Syt1. Calpain treatment also produced a BDP identical to the 33 Syt1-fragment produced following TBI.

B2: human erythrocyte calpain-1 (protein)
chain: SEEIITPVYCTGVSAQVQKQRARELGLGRHENAIKYLGQDYEQLRVRCLQSGTLFRDEAFPPVPQSLGYKDLGPNSSKTYGIKWKRPTELLSNPQFIVDGATRTDICQGALGDCWLLAAIASLTLNDTLLHRVVPHGQSFQNGYAGIFHFQLWQFGEWVDVVVDDLLPIKDGKLVFVHSAEGNEFWSALLEKAYAKVNGSYEALSGGSTSEGFEDFTGGVTEWYELRKAPSDLYQIILKALERGSLLGCSIDISSVLDMEAITFKKLVKGHAYSVTGAKQVNYRGQVVSLIRMRNPWGEVEWTGAWSDSSSEWNNVDPYERDQLRVKMEDGEFWMSFRDFMREFTRLEICNLTPDALKSRTIRKWNTTLYEGTWRRGSTAGGCRNYPATFWVNPQFKIRLDETDDPDDYGDRESGCSFVLALMQKHRRRERRFGRDMETIGFAVYEVPPELVGQPAVHLKRDFFLANASRARSEQFINLREVSTRFRLPPGEYVVVPSTFEPNKEGDFVLRFFSEKSAGTVELDDQIQANLPDEQVLSEEEIDENFKALFRQLAGEDMEISVKELRTILNRIISKHKDLRTKGFSLESCRSMVNLMDRDGNGKLGLVEFNILWNRIRNYLSIFRKFDLDKSGSMSAYEMRMAIESAGFKLNKKLYELIITRYSEPDLAVDFDNFVCCLVRLETMFRFFKTLDTDLDGVVTFDLFKWLQLTMFA
[1]
  in vitro protease digestion of lysate, Western blot: Digestion with calpain-1 showed identical results (data not shown).

B3: recombinant human caspase-3 (Chemicon) (protein)
chain: SGISLDNSYKMDYPEMGLCIIINNKNFHKSTGMTSRSGTDVDAANLRETFRNLKYEVRNKNDLTREEIVELMRDVSKEDHSKRSSFVCVLLSHGEEGIIFGTNGPVDLKKITNFFRGDRCRSLTGKPKLFIIQACRGTELDCGIETDSGVDDDMACHKIPVEADFLYAYSTAPGYYSWRNSKDGSWFIQSLCAMLKQYADKLEFMHILTRVNRKVATEFESFSFDATFHAKKQIPCIVSMLTKELYFYH
[2]
  in vitro protease digestion of naive brain lysate, Western blot: caspase-3 treatment did not produce the 55 kDa BDP
[1]
  in vitro protease digestion of lysate, Western blot: Syt1 was resistant to caspase-3 in the same samples

B4: rat recombinant calpain-2 (Calbiochem) (protein)
chain: MAGIAMKLAKDREAAEGLGSHERAIKYLNQDYETLRNECLEAGALFQDPSFPALPSSLGFKELGPYSSKTRGIEWKRPTEICADPQFIIGGATRTDICQGALGDCWLLAAIASLTLNEEILARVVPLDQSFQENYAGIFHFQFWQYGEWVEVVVDDRLPTKDGELLFVHSAEGSEFWSALLEKAYAKINGCYEALSGGATTEGFEDFTGGIAEWYELRKPPPNLFKIIQKALEKGSLLGCSIDITSAADSEAVTYQKLVKGHAYSVTGAEEVESSGSLQKLIRIRNPWGQVEWTGKWNDNCPSWNTVDPEVRANLTERQEDGEFWMSFSDFLRHYSRLEICNLTPDTLTCDSYKKWKLTKMDGNWRRGSTAGGCRNYPNTFWMNPQYLIKLEEEDEDDEDGERGCTFLVGLIQKHRRRQRKMGEDMHTIGFGIYEVPEELTGQTNIHLSKNFFLTTRARERSDTFINLREVLNRFKLPPGEYVLVPSTFEPHKNGDFCIRVFSEKKADYQTVDDEIEANIEEIEANEEDIGDGFRRLFAQLAGEDAEISAFELQTILRRVLAKREDIKSDGFSIETCKIMVDMLDEDGSGKLGLKEFYILWTKIQKYQKIYREIDVDRSGTMNSYEMRKALEEAGFKLPCQLHQVIVARFADDELIIDFDNFVRCLVRLEILFKIFKQLDPENTGTIQLDLISWLSFSVL
[3]
  in vitro digestion of the synthetic peptide, Coomassie gel and N-terminal microsequencing: Purified CRMP-2 C-terminal 53-mer (500-552) peptide was synthesized and digested by rat calpain-2.
